Results from US20250352667A1.

Key:
[1] = target: KEAP1 (wild-type full-length), His-tagged (human) (UniProt Q14145); assay: AlphaScreen; 614.4 nM FLAG-NRF2, 150 nM His-KEAP1; Rep 2
[2] = target: KEAP1 (wild-type full-length), His-tagged (human) (UniProt Q14145); assay: AlphaScreen; 153.6 nM FLAG-NRF2, 150 nM His-KEAP1; signal against NRF2 only
[3] = target: KEAP1 (wild-type full-length), His-tagged (human) (UniProt Q14145); assay: AlphaScreen; 614.4 nM FLAG-NRF2, 150 nM His-KEAP1; signal against NRF2 only
[4] = target: KEAP1 (wild-type full-length), His-tagged (human) (UniProt Q14145); assay: AlphaScreen; 19.2 nM FLAG-NRF2, 150 nM His-KEAP1; signal against NRF2 only
[5] = target: KEAP1 (wild-type full-length), His-tagged (human) (UniProt Q14145); assay: AlphaScreen; 9.6 nM FLAG-NRF2, 150 nM His-KEAP1; Rep 2
[6] = target: KEAP1 (wild-type full-length), His-tagged (human) (UniProt Q14145); assay: AlphaScreen; 38.4 nM FLAG-NRF2, 150 nM His-KEAP1; Rep 2
[7] = target: KEAP1 (wild-type full-length), His-tagged (human) (UniProt Q14145); assay: AlphaScreen; 4.8 nM FLAG-NRF2, 150 nM His-KEAP1; signal against NRF2 only
[8] = target: KEAP1 (wild-type full-length), His-tagged (human) (UniProt Q14145); assay: AlphaScreen; 153.6 nM FLAG-NRF2, 150 nM His-KEAP1; Rep 1
[9] = target: KEAP1 (wild-type full-length), His-tagged (human) (UniProt Q14145); assay: AlphaScreen; 38.4 nM FLAG-NRF2, 150 nM His-KEAP1; signal against NRF2 only
[10] = target: KEAP1 (wild-type full-length), His-tagged (human) (UniProt Q14145); assay: AlphaScreen; 9.6 nM FLAG-NRF2, 150 nM His-KEAP1; signal against NRF2 only
[11] = target: KEAP1 (wild-type full-length), His-tagged (human) (UniProt Q14145); assay: AlphaScreen; 2.4 nM FLAG-NRF2, 150 nM His-KEAP1; Rep 1
[12] = target: KEAP1 (wild-type full-length), His-tagged (human) (UniProt Q14145); assay: AlphaScreen; 38.4 nM FLAG-NRF2, 150 nM His-KEAP1; Rep 1
[13] = target: KEAP1 (wild-type full-length), His-tagged (human) (UniProt Q14145); assay: AlphaScreen; 19.2 nM FLAG-NRF2, 150 nM His-KEAP1; Rep 1
[14] = target: KEAP1 (wild-type full-length), His-tagged (human) (UniProt Q14145); assay: AlphaScreen; 1228.8 nM FLAG-NRF2, 150 nM His-KEAP1; Rep 1
[15] = target: KEAP1 (wild-type full-length), His-tagged (human) (UniProt Q14145); assay: AlphaScreen; 307.2 nM FLAG-NRF2, 150 nM His-KEAP1; Rep 2
[16] = target: KEAP1 (wild-type full-length), His-tagged (human) (UniProt Q14145); assay: AlphaScreen; 76.8 nM FLAG-NRF2, 150 nM His-KEAP1; Rep 2
[17] = target: KEAP1 (wild-type full-length), His-tagged (human) (UniProt Q14145); assay: AlphaScreen; 1228.8 nM FLAG-NRF2, 150 nM His-KEAP1; signal against NRF2 only
[18] = target: KEAP1 (wild-type full-length), His-tagged (human) (UniProt Q14145); assay: AlphaScreen; 76.8 nM FLAG-NRF2, 150 nM His-KEAP1; signal against NRF2 only
[19] = target: KEAP1 (wild-type full-length), His-tagged (human) (UniProt Q14145); assay: AlphaScreen; 4.8 nM FLAG-NRF2, 150 nM His-KEAP1; Rep 2
[20] = target: KEAP1 (wild-type full-length), His-tagged (human) (UniProt Q14145); assay: AlphaScreen; 9.6 nM FLAG-NRF2, 150 nM His-KEAP1; Rep 1
[21] = target: KEAP1 (wild-type full-length), His-tagged (human) (UniProt Q14145); assay: AlphaScreen; 153.6 nM FLAG-NRF2, 150 nM His-KEAP1; Rep 2
[22] = target: KEAP1 (wild-type full-length), His-tagged (human) (UniProt Q14145); assay: AlphaScreen; 19.2 nM FLAG-NRF2, 150 nM His-KEAP1; Rep 2
[23] = target: KEAP1 (wild-type full-length), His-tagged (human) (UniProt Q14145); assay: AlphaScreen; 1228.8 nM FLAG-NRF2, 150 nM His-KEAP1; Rep 2
[24] = target: KEAP1 (wild-type full-length), His-tagged (human) (UniProt Q14145); assay: AlphaScreen; 2.4 nM FLAG-NRF2, 150 nM His-KEAP1; signal against NRF2 only
[25] = target: KEAP1 (wild-type full-length), His-tagged (human) (UniProt Q14145); assay: AlphaScreen; 2.4 nM FLAG-NRF2, 150 nM His-KEAP1; Rep 2
[26] = target: KEAP1 (wild-type full-length), His-tagged (human) (UniProt Q14145); assay: AlphaScreen; 4.8 nM FLAG-NRF2, 150 nM His-KEAP1; Rep 1
[27] = target: KEAP1 (wild-type full-length), His-tagged (human) (UniProt Q14145); assay: AlphaScreen; 76.8 nM FLAG-NRF2, 150 nM His-KEAP1; Rep 1
[28] = target: KEAP1 (wild-type full-length), His-tagged (human) (UniProt Q14145); assay: AlphaScreen; 614.4 nM FLAG-NRF2, 150 nM His-KEAP1; Rep 1
[29] = target: KEAP1 (wild-type full-length), His-tagged (human) (UniProt Q14145); assay: AlphaScreen; 307.2 nM FLAG-NRF2, 150 nM His-KEAP1; Rep 1

KEAP1 (wild-type full-length), His-tagged (human), sequence (Q14145 2-624 limits assumed, form in doubt): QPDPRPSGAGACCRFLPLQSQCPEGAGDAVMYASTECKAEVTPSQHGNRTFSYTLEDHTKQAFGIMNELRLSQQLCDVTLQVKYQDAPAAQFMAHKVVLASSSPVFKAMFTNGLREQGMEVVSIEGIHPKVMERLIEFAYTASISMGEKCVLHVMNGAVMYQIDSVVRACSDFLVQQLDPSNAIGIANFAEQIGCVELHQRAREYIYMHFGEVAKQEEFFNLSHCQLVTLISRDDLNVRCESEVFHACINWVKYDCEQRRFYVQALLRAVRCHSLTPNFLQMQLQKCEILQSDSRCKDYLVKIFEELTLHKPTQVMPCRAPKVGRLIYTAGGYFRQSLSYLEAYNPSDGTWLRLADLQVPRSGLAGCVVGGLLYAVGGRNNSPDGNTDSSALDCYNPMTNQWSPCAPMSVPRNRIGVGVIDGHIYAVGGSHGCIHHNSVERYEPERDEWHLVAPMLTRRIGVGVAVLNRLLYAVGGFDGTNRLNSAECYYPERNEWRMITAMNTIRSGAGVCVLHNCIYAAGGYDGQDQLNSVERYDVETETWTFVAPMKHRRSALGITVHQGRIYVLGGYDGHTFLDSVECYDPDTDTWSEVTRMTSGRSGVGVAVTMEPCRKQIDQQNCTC

Substance	A-counts [1]	S/N [2]	S/N [3]	S/N [4]	A-counts [5]	A-counts [6]	S/N [7]	A-counts [8]	S/N [9]	S/N [10]	A-counts [11]	A-counts [12]	A-counts [13]	A-counts [14]	A-counts [15]	A-counts [16]	S/N [17]	S/N [18]	A-counts [19]	A-counts [20]	other results
NRF2 isoform 2 (E63G/E66G full-length), FLAG-tagged	1400 A-counts	1.5	1.1	1.8	1520 A-counts	1960 A-counts	1.8	1820 A-counts	1.8	1.8	1080 A-counts	2120 A-counts	1700 A-counts	1250 A-counts	1650 A-counts	1900 A-counts	1	1.7	1480 A-counts	1670 A-counts	A-counts [21]: 1840 A-counts; A-counts [22]: 1950 A-counts; A-counts [23]: 1210 A-counts; S/N [24]: 1.7; A-counts [25]: 1120 A-counts; A-counts [26]: 1390 A-counts; A-counts [27]: 2140 A-counts; A-counts [28]: 1570 A-counts; A-counts [29]: 1600 A-counts
NRF2 isoform 2 (wild-type full-length), FLAG-tagged	2290 A-counts	2.8	2.1	4.2	2590 A-counts	3460 A-counts	2.7	3200 A-counts	3.4	3.7	1130 A-counts	3470 A-counts	3480 A-counts	1480 A-counts	2860 A-counts	3910 A-counts	1.3	3.4	1670 A-counts	2310 A-counts	A-counts [21]: 3500 A-counts; A-counts [22]: 3260 A-counts; A-counts [23]: 1470 A-counts; S/N [24]: 2; A-counts [25]: 1010 A-counts; A-counts [26]: 1740 A-counts; A-counts [27]: 3730 A-counts; A-counts [28]: 2430 A-counts; A-counts [29]: 2970 A-counts
